The supplement of paper PMC10567573

B1: RAD54B (parent)
chain: YVQEKRDGLKRRQQLEEELLRAKI

Variants of: B1
Experiment: protein stability index of a GFP-peptide fusion (GPS, HEK-293T) (PSI 1-6); higher = more stable
Details: c terminus: a fixed tail appended
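Note: lentivirally expressed fusions sorted by FACS into six bins by GFP to DsRed ratio, PSI derived from sequencing read proportions per bin multiplied by bin number.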

Q: For YVQEKRDGHKRRQQLEEELLRAKI [L9H], which protein stability index is on record?
A: 2.1

Q: Which protein stability index does the source give for YVQEKRDGVKRRQQLEEELLRAKI [L9V] here?
A: 1.82

Q: Which protein stability index does the source give for YVQEKRDGDKRRQQLEEELLRAKI [L9D] here?
A: 2.92

Q: Which protein stability index does the source give for YVQEKRDGGKRRQQLEEELLRAKI [L9G] here?
A: 2.14

Q: Which protein stability index does the source give for YVQEKRDGYKRRQQLEEELLRAKI [L9Y] here?
A: 1.91

Q: With YVQEKRDGIKRRQQLEEELLRAKI [L9I] as the variant, how does the protein stability index read?
A: 2.25

Q: Which protein stability index does the source give for YVQEKRDGRKRRQQLEEELLRAKI [L9R] here?
A: 1.79

Q: Which protein stability index does the source give for YVQEKRDGCKRRQQLEEELLRAKI [L9C] here?
A: 2.06

Q: With YVQEKRDGAKRRQQLEEELLRAKI [L9A] as the variant, how does the protein stability index read?
A: 2.21

Q: With YVQEKRDGKKRRQQLEEELLRAKI [L9K] as the variant, how does the protein stability index read?
A: 1.98

Q: Which protein stability index does the source give for YVQEKRDGQKRRQQLEEELLRAKI [L9Q] here?
A: 2.26

Q: With YVQEKRDGEKRRQQLEEELLRAKI [L9E] as the variant, how does the protein stability index read?
A: 2.85

Q: With YVQEKRDGTKRRQQLEEELLRAKI [L9T] as the variant, how does the protein stability index read?
A: 1.83

Q: With YVQEKRDGSKRRQQLEEELLRAKI [L9S] as the variant, how does the protein stability index read?
A: 1.99

Q: With YVQEKRDGMKRRQQLEEELLRAKI [L9M] as the variant, how does the protein stability index read?
A: 2.02

Q: For YVQEKRDGPKRRQQLEEELLRAKI [L9P], which protein stability index is on record?
A: 2.36

Q: For YVQEKRDGWKRRQQLEEELLRAKI [L9W], which protein stability index is on record?
A: 1.81

Q: For YVQEKRDGNKRRQQLEEELLRAKI [L9N], which protein stability index is on record?
A: 2.35

Q: For YVQEKRDGFKRRQQLEEELLRAKI [L9F], which protein stability index is on record?
A: 2.02

Q: Which protein stability index does the source give for YVQEKHDGLKRRQQLEEELLRAKI [R6H] here?
A: 2.1

Q: Which protein stability index does the source give for YVQEKGDGLKRRQQLEEELLRAKI [R6G] here?
A: 2.39

Q: With YVQEKVDGLKRRQQLEEELLRAKI [R6V] as the variant, how does the protein stability index read?
A: 2.23

Q: With YVQEKNDGLKRRQQLEEELLRAKI [R6N] as the variant, how does the protein stability index read?
A: 2.31

Q: For YVQEKWDGLKRRQQLEEELLRAKI [R6W], which protein stability index is on record?
A: 2.07

Q: For YVQEKTDGLKRRQQLEEELLRAKI [R6T], which protein stability index is on record?
A: 2.49

Q: For YVQEKSDGLKRRQQLEEELLRAKI [R6S], which protein stability index is on record?
A: 1.75

Q: With YVQEKIDGLKRRQQLEEELLRAKI [R6I] as the variant, how does the protein stability index read?
A: 2.66

Q: With YVQEKPDGLKRRQQLEEELLRAKI [R6P] as the variant, how does the protein stability index read?
A: 1.94

Q: Which protein stability index does the source give for YVQEKEDGLKRRQQLEEELLRAKI [R6E] here?
A: 3.26

Q: Which protein stability index does the source give for YVQEKCDGLKRRQQLEEELLRAKI [R6C] here?
A: 2.32

Q: Which protein stability index does the source give for YVQEKDDGLKRRQQLEEELLRAKI [R6D] here?
A: 2.87

Q: With YVQEKMDGLKRRQQLEEELLRAKI [R6M] as the variant, how does the protein stability index read?
A: 2.12

Q: With YVQEKKDGLKRRQQLEEELLRAKI [R6K] as the variant, how does the protein stability index read?
A: 1.96

Q: Which protein stability index does the source give for YVQEKFDGLKRRQQLEEELLRAKI [R6F] here?
A: 2.14

Q: For YVQEKYDGLKRRQQLEEELLRAKI [R6Y], which protein stability index is on record?
A: 2.18

Q: With YVQEKADGLKRRQQLEEELLRAKI [R6A] as the variant, how does the protein stability index read?
A: 2.26

Q: For YVQEKQDGLKRRQQLEEELLRAKI [R6Q], which protein stability index is on record?
A: 2.39

Q: For YVQEKLDGLKRRQQLEEELLRAKI [R6L], which protein stability index is on record?
A: 2.46

Q: With YVQEKRFGLKRRQQLEEELLRAKI [D7F] as the variant, how does the protein stability index read?
A: 1.54

Q: For YVQEKRLGLKRRQQLEEELLRAKI [D7L], which protein stability index is on record?
A: 1.46

Q: For YVQEKRSGLKRRQQLEEELLRAKI [D7S], which protein stability index is on record?
A: 2.37

Q: With YVQEKRVGLKRRQQLEEELLRAKI [D7V] as the variant, how does the protein stability index read?
A: 1.47

Q: Which protein stability index does the source give for YVQEKRMGLKRRQQLEEELLRAKI [D7M] here?
A: 1.79

Q: For YVQEKRPGLKRRQQLEEELLRAKI [D7P], which protein stability index is on record?
A: 1.88

Q: For YVQEKRCGLKRRQQLEEELLRAKI [D7C], which protein stability index is on record?
A: 3.13

Q: With YVQEKRQGLKRRQQLEEELLRAKI [D7Q] as the variant, how does the protein stability index read?
A: 2.21

Q: For YVQEKRTGLKRRQQLEEELLRAKI [D7T], which protein stability index is on record?
A: 3.69

Q: Which protein stability index does the source give for YVQEKRYGLKRRQQLEEELLRAKI [D7Y] here?
A: 1.39

Q: For YVQEKRKGLKRRQQLEEELLRAKI [D7K], which protein stability index is on record?
A: 2.16

Q: With YVQEKRRGLKRRQQLEEELLRAKI [D7R] as the variant, how does the protein stability index read?
A: 2.37

Q: For YVQEKRWGLKRRQQLEEELLRAKI [D7W], which protein stability index is on record?
A: 2.14

Q: With YVQEKRAGLKRRQQLEEELLRAKI [D7A] as the variant, how does the protein stability index read?
A: 1.87

Q: For YVQEKREGLKRRQQLEEELLRAKI [D7E], which protein stability index is on record?
A: 1.96

Q: With YVQEKRIGLKRRQQLEEELLRAKI [D7I] as the variant, how does the protein stability index read?
A: 2.13

Q: For YVQEKRHGLKRRQQLEEELLRAKI [D7H], which protein stability index is on record?
A: 1.67

Q: With YVQEKRNGLKRRQQLEEELLRAKI [D7N] as the variant, how does the protein stability index read?
A: 1.81

Q: For YVQEKRGGLKRRQQLEEELLRAKI [D7G], which protein stability index is on record?
A: 1.88

Q: Which protein stability index does the source give for YVQEKRDGLKRYQQLEEELLRAKI [R12Y] here?
A: 2.01

Q: Which protein stability index does the source give for YVQEKRDGLKRSQQLEEELLRAKI [R12S] here?
A: 2.06

Q: With YVQEKRDGLKRLQQLEEELLRAKI [R12L] as the variant, how does the protein stability index read?
A: 1.98

Q: For YVQEKRDGLKREQQLEEELLRAKI [R12E], which protein stability index is on record?
A: 2.34

Q: With YVQEKRDGLKRIQQLEEELLRAKI [R12I] as the variant, how does the protein stability index read?
A: 1.99

Q: With YVQEKRDGLKRCQQLEEELLRAKI [R12C] as the variant, how does the protein stability index read?
A: 2.25

Q: For YVQEKRDGLKRNQQLEEELLRAKI [R12N], which protein stability index is on record?
A: 2.41

Q: For YVQEKRDGLKRGQQLEEELLRAKI [R12G], which protein stability index is on record?
A: 2.25

Q: For YVQEKRDGLKRWQQLEEELLRAKI [R12W], which protein stability index is on record?
A: 1.89

Q: With YVQEKRDGLKRAQQLEEELLRAKI [R12A] as the variant, how does the protein stability index read?
A: 1.85

Q: For YVQEKRDGLKRMQQLEEELLRAKI [R12M], which protein stability index is on record?
A: 2.02

Q: With YVQEKRDGLKRPQQLEEELLRAKI [R12P] as the variant, how does the protein stability index read?
A: 1.96

Q: Which protein stability index does the source give for YVQEKRDGLKRHQQLEEELLRAKI [R12H] here?
A: 2.18

Q: For YVQEKRDGLKRVQQLEEELLRAKI [R12V], which protein stability index is on record?
A: 2.04

Q: With YVQEKRDGLKRQQQLEEELLRAKI [R12Q] as the variant, how does the protein stability index read?
A: 2.35

Q: With YVQEKRDGLKRFQQLEEELLRAKI [R12F] as the variant, how does the protein stability index read?
A: 2.28

Q: With YVQEKRDGLKRTQQLEEELLRAKI [R12T] as the variant, how does the protein stability index read?
A: 2.19

Q: With YVQEKRDGLKRKQQLEEELLRAKI [R12K] as the variant, how does the protein stability index read?
A: 2.47

Q: For YVQEKRDGLKRDQQLEEELLRAKI [R12D], which protein stability index is on record?
A: 3.23

Q: Which protein stability index does the source give for YVQEKRDGLERRQQLEEELLRAKI [K10E] here?
A: 2.58

Q: For YVQEKRDGLSRRQQLEEELLRAKI [K10S], which protein stability index is on record?
A: 2.49

Q: Which protein stability index does the source give for YVQEKRDGLFRRQQLEEELLRAKI [K10F] here?
A: 1.6

Q: Which protein stability index does the source give for YVQEKRDGLVRRQQLEEELLRAKI [K10V] here?
A: 2.9

Q: For YVQEKRDGLGRRQQLEEELLRAKI [K10G], which protein stability index is on record?
A: 2.28

Q: For YVQEKRDGLRRRQQLEEELLRAKI [K10R], which protein stability index is on record?
A: 1.98

Q: For YVQEKRDGLMRRQQLEEELLRAKI [K10M], which protein stability index is on record?
A: 2.46

Q: For YVQEKRDGLLRRQQLEEELLRAKI [K10L], which protein stability index is on record?
A: 2.28

Q: With YVQEKRDGLCRRQQLEEELLRAKI [K10C] as the variant, how does the protein stability index read?
A: 1.83

Q: Which protein stability index does the source give for YVQEKRDGLARRQQLEEELLRAKI [K10A] here?
A: 2.04

Q: Which protein stability index does the source give for YVQEKRDGLHRRQQLEEELLRAKI [K10H] here?
A: 2.4

Q: Which protein stability index does the source give for YVQEKRDGLNRRQQLEEELLRAKI [K10N] here?
A: 2.41

Q: For YVQEKRDGLIRRQQLEEELLRAKI [K10I], which protein stability index is on record?
A: 1.97

Q: With YVQEKRDGLPRRQQLEEELLRAKI [K10P] as the variant, how does the protein stability index read?
A: 2.55

Q: With YVQEKRDGLWRRQQLEEELLRAKI [K10W] as the variant, how does the protein stability index read?
A: 1.47

Q: With YVQEKRDGLTRRQQLEEELLRAKI [K10T] as the variant, how does the protein stability index read?
A: 2.5

Q: For YVQEKRDGLYRRQQLEEELLRAKI [K10Y], which protein stability index is on record?
A: 1.77

Q: For YVQEKRDGLQRRQQLEEELLRAKI [K10Q], which protein stability index is on record?
A: 2.5
